Values of other authors, collected in article PMC2846785.

System: Cys

Arylamine N-acetyltransferase 2 (hamster NAT2) (Mesocricetus auratus (Syrian hamster))
pKa: 5.23 ± 0.03
